Source: patent publication US20020091083, “DNA-binding protein YB-1-containing collagen accumulation inhibitors” (Sumitomo Chemical Company, Ltd., published 2002)

Molecular target: YB-1 (DNA-binding protein) (Homo sapiens, UniProt P67809 SEQ:1-317)
Assay: EMSA; 200 ng protein, 1 ug poly dI-dC, on ice 30 min
Conditions: tags: His tag (pET-28a(+), Ni-NTA purified from E. coli BL21-GOLD(DE3)); label: 32P 5' end
Procedure: An oligonucleotide consisting of the nucleotide sequence represented by SEQ ID No:.3 was mixed with an oligonucleotide consisting of the nucleotide sequence complementary with its nucleotide sequence, and this oligonucleotide mixture was boiled for 5 minutes and then allowed to stand at room temperature. Then this oligonucleotide mixture in an amount corresponding to 10 pmol DNA, 2 μl of a T4 kinase buffer, 1 μl of T4 kinase and 6 μl of γ-³²P-ATP(>3000 Ci/mmol, DAIICHI KAGAKU YAKUHIN, Catalog No.NEG-502A) were mixed with distilled water to make the total volume 20 μl, which was then kept at 37° C. for 1 hour. This mixture was loaded onto Quick Spin Column G-25 (Boehringer, Catalog No.1273949). This column was centrifuged (2,500 rpm, 5 minutes), and the effluent was recovered. The effluent thus recovered was subjected to a 10% polyacrylamide gel electrophoresis to recover a gel portion containing a ³²P-labelled double-stranded DNA. the gel portion thus recovered was combined with distilled water, kept at 37° C. over one whole day and night, and extracted to obtain the ³²P-labelled DNA (hereinafter referred to as the binding probe). Thus the binding probe was prepared. […]

YB-1 (DNA-binding protein), sequence (P67809 other isoform, or with tags, fused parts or gaps): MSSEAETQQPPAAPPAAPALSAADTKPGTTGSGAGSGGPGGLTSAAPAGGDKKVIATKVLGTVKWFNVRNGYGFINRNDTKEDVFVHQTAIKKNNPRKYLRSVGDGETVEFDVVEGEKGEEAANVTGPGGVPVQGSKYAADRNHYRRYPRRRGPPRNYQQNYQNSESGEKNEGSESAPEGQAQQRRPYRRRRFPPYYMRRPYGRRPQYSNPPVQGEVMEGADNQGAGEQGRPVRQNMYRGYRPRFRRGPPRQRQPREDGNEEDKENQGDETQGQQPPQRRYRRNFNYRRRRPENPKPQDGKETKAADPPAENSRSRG

Binder	binding result
COL1A2 promoter binding probe (dsDNA) DNA 1: CCCCCCATTCGCTCCCTCCTCTGCGCCCCCGCAGGCTC DNA 2: GAGCCTGCGGGGGCGCAGAGGAGGGAGCGAATGGGGGG	binds
COL1A2 promoter non-binding probe (dsDNA) DNA 1: CCCCGGATTCGCTCCCTCCTCTGCGCCCCCGCAGGCTC DNA 2: GAGCCTGCGGGGGCGCAGAGGAGGGAGCGAATCCGGGG	no binding
